The values below come from patent US20040038290A1 (ROCKEFELLER UNIVERSITY, published 2004).

The target in test [1] is human DNA polymerase delta (human) (UniProt P28340). As to the kind of experiment: cell-based or functional assay.
Test [2] has as its target E. coli Pol III (Escherichia coli) (UniProt P10443). As to the kind of experiment: cell-based or functional assay.
The target in test [3] is T1, Aquifex aeolicus α subunit of DNA polymerase III (Aquifex aeolicus, UniProt O67125 1-1161).
T1 construct: Recombinant, expressed in E. coli from pETAadnaE (pET24); also called A.ae. α; Aquifex α
T1 sequence: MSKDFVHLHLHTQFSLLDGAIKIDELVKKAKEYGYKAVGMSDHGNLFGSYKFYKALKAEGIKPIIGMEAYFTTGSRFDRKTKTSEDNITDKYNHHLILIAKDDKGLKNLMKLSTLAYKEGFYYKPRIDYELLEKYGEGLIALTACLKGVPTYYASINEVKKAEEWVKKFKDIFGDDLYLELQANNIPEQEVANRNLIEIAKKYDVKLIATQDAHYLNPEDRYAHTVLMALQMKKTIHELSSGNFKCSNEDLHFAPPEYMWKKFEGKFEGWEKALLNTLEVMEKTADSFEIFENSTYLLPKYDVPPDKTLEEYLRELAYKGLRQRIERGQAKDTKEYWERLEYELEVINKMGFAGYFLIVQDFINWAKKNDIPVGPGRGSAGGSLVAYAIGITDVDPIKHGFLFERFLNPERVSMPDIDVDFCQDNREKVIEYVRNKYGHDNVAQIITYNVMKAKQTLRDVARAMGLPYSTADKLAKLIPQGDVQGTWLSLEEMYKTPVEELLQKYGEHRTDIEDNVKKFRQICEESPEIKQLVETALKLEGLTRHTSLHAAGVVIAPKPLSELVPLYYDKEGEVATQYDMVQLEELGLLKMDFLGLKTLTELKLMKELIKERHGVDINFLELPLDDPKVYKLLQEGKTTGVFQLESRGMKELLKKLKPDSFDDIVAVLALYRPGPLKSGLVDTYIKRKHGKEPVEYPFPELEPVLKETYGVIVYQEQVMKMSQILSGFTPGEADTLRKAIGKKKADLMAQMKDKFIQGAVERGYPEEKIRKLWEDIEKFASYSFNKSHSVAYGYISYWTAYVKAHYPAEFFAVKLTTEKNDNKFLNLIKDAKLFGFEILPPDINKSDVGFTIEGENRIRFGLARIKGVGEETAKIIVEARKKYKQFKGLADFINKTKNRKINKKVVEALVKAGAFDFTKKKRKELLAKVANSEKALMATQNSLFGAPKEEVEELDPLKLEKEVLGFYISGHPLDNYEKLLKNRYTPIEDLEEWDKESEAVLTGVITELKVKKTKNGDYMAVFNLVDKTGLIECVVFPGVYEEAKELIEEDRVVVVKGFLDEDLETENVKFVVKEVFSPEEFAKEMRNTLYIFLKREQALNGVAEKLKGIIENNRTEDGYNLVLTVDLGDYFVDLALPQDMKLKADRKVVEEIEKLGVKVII
As to the kind of experiment: complex constitution from pure subunits, column chromatography.

In test [4] the target is Thermus thermophilus DNA polymerase III purified from T.th. cell extracts. As to the kind of experiment: cell-based or functional assay.

Chain of E. coli Pol III (Escherichia coli) (P10443 whole entry): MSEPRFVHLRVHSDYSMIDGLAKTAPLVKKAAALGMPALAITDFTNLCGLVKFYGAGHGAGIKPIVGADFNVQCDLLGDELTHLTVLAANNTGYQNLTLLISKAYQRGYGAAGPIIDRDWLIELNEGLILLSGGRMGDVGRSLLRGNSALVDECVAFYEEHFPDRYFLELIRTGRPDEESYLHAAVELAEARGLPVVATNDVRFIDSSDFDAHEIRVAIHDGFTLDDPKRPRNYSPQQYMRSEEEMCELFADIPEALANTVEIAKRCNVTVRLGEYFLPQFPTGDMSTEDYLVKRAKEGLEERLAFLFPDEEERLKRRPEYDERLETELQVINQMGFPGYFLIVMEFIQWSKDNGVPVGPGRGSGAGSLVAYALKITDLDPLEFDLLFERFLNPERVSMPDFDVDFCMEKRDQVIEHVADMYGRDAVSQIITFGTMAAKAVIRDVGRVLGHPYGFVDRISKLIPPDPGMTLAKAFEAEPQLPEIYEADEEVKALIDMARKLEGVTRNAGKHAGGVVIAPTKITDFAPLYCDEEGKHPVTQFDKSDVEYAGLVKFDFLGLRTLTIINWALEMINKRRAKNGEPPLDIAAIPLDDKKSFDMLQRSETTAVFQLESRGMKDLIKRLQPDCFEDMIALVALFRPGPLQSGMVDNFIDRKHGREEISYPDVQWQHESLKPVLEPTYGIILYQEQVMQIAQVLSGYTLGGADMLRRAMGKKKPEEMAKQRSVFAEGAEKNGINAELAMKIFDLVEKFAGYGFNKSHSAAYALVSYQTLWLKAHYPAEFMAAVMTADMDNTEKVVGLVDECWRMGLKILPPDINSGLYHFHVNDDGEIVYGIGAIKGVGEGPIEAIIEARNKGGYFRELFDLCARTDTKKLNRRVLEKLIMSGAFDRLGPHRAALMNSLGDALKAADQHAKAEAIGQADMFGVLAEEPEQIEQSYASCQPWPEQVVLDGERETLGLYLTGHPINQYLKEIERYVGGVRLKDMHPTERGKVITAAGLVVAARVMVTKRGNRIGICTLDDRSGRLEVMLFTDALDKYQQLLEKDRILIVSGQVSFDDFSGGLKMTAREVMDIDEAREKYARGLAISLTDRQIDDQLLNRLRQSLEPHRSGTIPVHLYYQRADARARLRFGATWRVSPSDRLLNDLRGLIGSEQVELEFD
Chain of human DNA polymerase delta (human) (P28340 whole entry, stated change not applied): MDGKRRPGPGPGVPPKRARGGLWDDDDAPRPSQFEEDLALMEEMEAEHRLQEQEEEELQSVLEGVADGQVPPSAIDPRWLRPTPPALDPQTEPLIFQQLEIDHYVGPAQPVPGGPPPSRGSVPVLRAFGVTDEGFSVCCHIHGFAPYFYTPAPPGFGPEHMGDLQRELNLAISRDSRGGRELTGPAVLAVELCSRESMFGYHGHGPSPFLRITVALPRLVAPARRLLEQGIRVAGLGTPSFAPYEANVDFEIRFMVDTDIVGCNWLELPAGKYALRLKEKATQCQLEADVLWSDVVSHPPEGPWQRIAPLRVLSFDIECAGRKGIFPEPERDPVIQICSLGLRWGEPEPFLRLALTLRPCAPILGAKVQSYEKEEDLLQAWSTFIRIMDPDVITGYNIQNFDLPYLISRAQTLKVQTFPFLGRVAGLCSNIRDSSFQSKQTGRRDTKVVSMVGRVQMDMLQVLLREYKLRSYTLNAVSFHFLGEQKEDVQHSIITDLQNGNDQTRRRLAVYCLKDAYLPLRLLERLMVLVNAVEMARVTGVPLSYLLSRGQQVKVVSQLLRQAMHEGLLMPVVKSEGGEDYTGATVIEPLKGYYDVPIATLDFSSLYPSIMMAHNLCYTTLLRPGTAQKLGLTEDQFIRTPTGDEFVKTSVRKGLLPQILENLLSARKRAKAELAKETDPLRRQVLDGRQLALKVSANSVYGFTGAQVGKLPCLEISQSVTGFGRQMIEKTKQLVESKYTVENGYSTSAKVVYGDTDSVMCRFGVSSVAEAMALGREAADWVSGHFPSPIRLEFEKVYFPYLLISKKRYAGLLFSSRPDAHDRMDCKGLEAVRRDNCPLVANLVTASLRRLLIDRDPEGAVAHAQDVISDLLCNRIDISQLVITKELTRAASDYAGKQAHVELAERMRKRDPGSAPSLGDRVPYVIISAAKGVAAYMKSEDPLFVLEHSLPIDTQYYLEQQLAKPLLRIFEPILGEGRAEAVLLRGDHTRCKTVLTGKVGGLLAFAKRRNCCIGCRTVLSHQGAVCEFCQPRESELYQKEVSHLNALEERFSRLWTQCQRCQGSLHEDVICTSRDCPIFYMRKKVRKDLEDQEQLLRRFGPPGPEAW

In test [1], human PCNA (from UniProt P12004 1-261) yielded a pmol synthesis on oligodT-primed linear polydA, human Polδ with PCNA (lane 4) of 24 pmol and a pmol synthesis on oligodT-primed linear polydA, human Polδ without PCNA (lane 3, baseline) of 2 pmol.
For “E. coli β subunit (from UniProt P0A988 1-366)”, in test [2], the pmol synthesis on oligodT-primed linear polydA, E. coli Pol III with β (lane 2) was determined as 35 pmol and the pmol synthesis on oligodT-primed linear polydA, E. coli Pol III without β (lane 1, baseline) came to 6 pmol.

B1: Aquifex aeolicus tau subunit of DNA polymerase III (other)
chain: MNYVPFARKYRPKFFREVIGQEAPVRILKNAIKNDRVAHAYLFAGPRGVGKTTIARILAKALNCKNPSKGEPCGECENCREIDRGVFPDLIEMDAASNRGIDDVRALKEAVNYKPIKGKYKVYIIDEAHMLTKEAFNALLKTLEEPPPRTVFVLCTTEYDKILPTILSRCQRIIFSKVRKEKVIEYLKKICEKEGIECEEGALEVLAHASEGCMRDAASLLDQASVYGEGRVTKEVVENFLGILSQESVRSFLKLLLNSEVDEAIKFLRELSEKGYNLTKFWEMLEEEVRNAILVKSLKNPESVVQNWQDYEDFKDYPLEALLYVENLINRGKVEARTREPLRAFELAVIKSLIVKDIIPVSQLGSVVKETKKEEKKVEVKEEPKVKEEKPKEQEEDRFQKVLNAVDGKILKRILEGAKREERDGKIVLKIEASYLRTMKKEFDSLKETFPFLEFEPVEDKKKPQKSSGTRLF
notes: Recombinant, expressed in E. coli from pETAadnaX (pET24); also called A.ae. tau
Regarding B1, the binding result in test [3] is “binds”.

B2: Thermus thermophilus β subunit, recombinant (protein)
chain: MNITVPKKLLSDQLSLLERIVPSRSANPLYTYLGLYAEEGALILFGTNGEVDLEVRLPAEAQSLPRVLVPAQPFFQLVRSLPGDLVALGLASEPGQGGQLELSSGRFRTRLSLAPAEGYPELLVPEGEDKGAFPLRTRMPSGELVKALTHVRYAASNEEYRAIFRGVQLEFSPQGFRAVASDGYRLALYDLPLPQGFQAKAVVPARSVDEMVRVLKGADGAEAVLALGEGVLALALEGGSGVRMALRLMEGEFPDYQRVIPQEFALKVQVEGEALREAVRRVSVLSDRQNHRVDLLLEEGRILLSAEGDYGKGQEEVPAQVEGPDMAVAYNARYLLEALAPVGDRAHLGISGPTSPSLIWGDGEGYRAVVVPLRVZ
As to B2, in test [4], the pmol synthesis on oligodT-primed linear polydA, T.th. Pol III with T.th. β (lane 6) worked out at 1.9 pmol and the pmol synthesis on oligodT-primed linear polydA, T.th. Pol III without T.th. β (lane 5, baseline) was 0.6 pmol.
